In the assay the target is RSC chromatin remodeling complex with Sth1-3xFlag-HaloTag (S. cerevisiae) (UniProt P32597). In words: two-colour single-molecule colocalisation on DNA (optical tweezers with confocal microscopy); RSC-JFX554 with ISW2-JFX650, or RSC-JFX554 with RSC-JFX650, diffusing on naked lambda DNA stretched to 5 pN; 10 mM Tris pH 7.4, 50 mM KCl, 3 mM MgCl2, 0.1 mg/ml BSA, Trolox; colocalisation threshold 0.31 um (RSC-RSC) and 0.29 um (RSC-ISW2); single exponential fits of dwell times.

With “ISW2 chromatin remodeling complex with Isw2-3xFlag-HaloTag (from UniProt Q08773 1-1120)”, the half-life of long colocalisation with co-diffusion, on DNA amounted to 0.68 s.
“RSC chromatin remodeling complex with Sth1-3xFlag-HaloTag (from UniProt P32597 1-1359)” displayed a half-life of long colocalisation with co-diffusion, on DNA of 0.7 s.

The values above are taken from paper doi:10.1101/2023.06.13.544671.
